Reference: PMC11724289, “Structural insights into a DNA polymerase reading the xeno nucleic acid HNA”

Legend:
[1] = target: T1, KOD-H4 DNA polymerase V93Q;I114T;D141A;E143A;S383K;K429G;F445L;A485L;Y493V;Y496H;Y497M;Y499F;A500E;R501N;I521L;E664K;K726R;N735K (Thermococcus kodakarensis KOD?) (UniProt D0VWU9); assay: fluorescence polarization; settings: template fully HNA (1,5-anhydrohexitol nucleic acid); primer DNA; FP: 1x ThermoPol (20 mM Tris-HCl, 10 mM (NH4)2SO4, 10 mM KCl, 2 mM MgSO4, 0.1% Triton X-100, pH 8.8), 25 C, 20 min, 5 nM labeled primer
T1 sequence: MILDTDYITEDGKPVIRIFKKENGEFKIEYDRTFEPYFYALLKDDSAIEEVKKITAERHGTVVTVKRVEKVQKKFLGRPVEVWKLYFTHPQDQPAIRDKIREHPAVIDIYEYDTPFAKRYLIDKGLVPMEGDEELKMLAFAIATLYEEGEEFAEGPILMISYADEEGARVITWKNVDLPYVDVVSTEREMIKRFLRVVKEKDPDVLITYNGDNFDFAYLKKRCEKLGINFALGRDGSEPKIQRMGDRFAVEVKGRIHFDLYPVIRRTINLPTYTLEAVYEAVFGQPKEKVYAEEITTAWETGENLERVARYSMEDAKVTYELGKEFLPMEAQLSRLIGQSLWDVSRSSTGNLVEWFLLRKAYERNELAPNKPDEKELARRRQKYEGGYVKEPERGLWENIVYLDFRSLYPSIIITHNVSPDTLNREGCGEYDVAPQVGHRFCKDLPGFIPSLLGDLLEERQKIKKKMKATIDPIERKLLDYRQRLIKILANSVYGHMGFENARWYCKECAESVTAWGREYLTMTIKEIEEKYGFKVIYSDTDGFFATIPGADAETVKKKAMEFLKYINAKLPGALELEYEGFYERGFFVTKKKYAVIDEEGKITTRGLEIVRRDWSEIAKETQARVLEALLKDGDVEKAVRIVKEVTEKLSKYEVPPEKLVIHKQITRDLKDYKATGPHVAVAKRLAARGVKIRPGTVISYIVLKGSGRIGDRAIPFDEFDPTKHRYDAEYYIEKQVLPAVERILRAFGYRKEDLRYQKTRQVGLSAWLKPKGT

[2] = target: T2, Tgo-H4 (RT-H4) DNA polymerase V93Q;I114T;D141A;E143A;S383K;E429G;F445L;A485L;F493V;Y496H;Y497M;Y499F;A500E;K501N;I521L;E664K;K726R;N735K (UniProt P56689); assay: fluorescence polarization; settings: template fully HNA (1,5-anhydrohexitol nucleic acid); primer DNA; FP: 1x ThermoPol (20 mM Tris-HCl, 10 mM (NH4)2SO4, 10 mM KCl, 2 mM MgSO4, 0.1% Triton X-100, pH 8.8), 25 C, 20 min, 5 nM labeled primer
T2 sequence: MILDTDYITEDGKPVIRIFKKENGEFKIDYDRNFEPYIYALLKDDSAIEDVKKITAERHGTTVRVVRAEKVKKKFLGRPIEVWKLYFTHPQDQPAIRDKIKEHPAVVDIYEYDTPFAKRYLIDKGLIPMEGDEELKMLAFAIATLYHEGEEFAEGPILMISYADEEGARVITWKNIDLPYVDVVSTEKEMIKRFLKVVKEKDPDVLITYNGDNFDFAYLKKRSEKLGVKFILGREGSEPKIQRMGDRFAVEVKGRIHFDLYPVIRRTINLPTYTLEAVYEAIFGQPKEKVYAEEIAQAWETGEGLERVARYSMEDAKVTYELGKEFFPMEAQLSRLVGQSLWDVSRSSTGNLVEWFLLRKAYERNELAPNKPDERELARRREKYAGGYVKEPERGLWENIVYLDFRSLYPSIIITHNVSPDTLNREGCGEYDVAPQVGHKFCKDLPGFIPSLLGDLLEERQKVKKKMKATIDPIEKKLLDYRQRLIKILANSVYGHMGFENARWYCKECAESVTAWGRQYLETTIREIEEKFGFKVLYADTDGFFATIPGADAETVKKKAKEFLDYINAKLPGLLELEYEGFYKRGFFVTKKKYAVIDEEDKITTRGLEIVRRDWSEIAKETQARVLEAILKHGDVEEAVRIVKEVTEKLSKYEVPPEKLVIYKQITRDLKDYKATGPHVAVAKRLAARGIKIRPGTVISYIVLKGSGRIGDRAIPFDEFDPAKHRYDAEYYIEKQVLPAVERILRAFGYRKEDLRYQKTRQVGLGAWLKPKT

KOD-H4 DNA polymerase [3] = target: T3, KOD-H4 DNA polymerase (UniProt D0VWU9 1-774, V93Q;I114T;D141A;E143A;S383K;K429G;F445L;A485L;Y493V;Y496H;Y497M;Y499F;A500E;R50 …); assay: X-ray crystallography; dGTP analogue dGMPNPP-type (alpha,beta-imido, NHdGTP); Mg2+ or Mg2+/Mn2+; FP: 1x ThermoPol (20 mM Tris-HCl, 10 mM (NH4)2SO4, 10 mM KCl, 2 mM MgSO4, 0.1% Triton X-100, pH 8.8), 25 C, 20 min, 5 nM labeled primer; settings: protein: recombinant; 5' overhang 3 nt on template; 13-nt duplex
T3 sequence: T1 sequence

[4] = target: T4, Tgo-H4 (RT-H4) DNA polymerase (UniProt P56689 1-773, V93Q;I114T;D141A;E143A;S383K;E429G;F445L;A485L;F493V;Y496H;Y497M;Y499F;A500E;K50 …); assay: fluorescence polarization; 2 mM MgSO4; apparent KD, Hill slope 1.66; FP: 1x ThermoPol (20 mM Tris-HCl, 10 mM (NH4)2SO4, 10 mM KCl, 2 mM MgSO4, 0.1% Triton X-100, pH 8.8), 25 C, 20 min, 5 nM labeled primer; settings: protein: recombinant; label: 5'-6-FAM on primer; 5' overhang 6 nt on template; 10-nt duplex
T4 sequence: T2 sequence

KOD-H4 DNA polymerase [5] = target: T3, KOD-H4 DNA polymerase; assay: fluorescence polarization; 2 mM MgSO4; apparent KD, Hill slope 1.67; FP: 1x ThermoPol (20 mM Tris-HCl, 10 mM (NH4)2SO4, 10 mM KCl, 2 mM MgSO4, 0.1% Triton X-100, pH 8.8), 25 C, 20 min, 5 nM labeled primer; settings: protein: recombinant; label: 5'-6-FAM on primer; 5' overhang 6 nt on template; 10-nt duplex

GACCACGGCC / AACTGTGGCCGTGGTC [DNA primer/HNA template (FP)]
Kd [1]: 80.2 nM | Kd [2]: 61.5 nM

B1: 13mer DNA primer/DNA template (crystal) (dsDNA)
DNA 1: GACCACGGCCACA
DNA 2: AACTGTGGCCGTGGTC
binding result (KOD-H4 DNA polymerase [3]): binds

B2: DNA primer/DNA template (FP) (dsDNA)
DNA 1: GACCACGGCC
DNA 2: AACTGTGGCCGTGGTC
Kd [4]: 10 nM | Kd (KOD-H4 DNA polymerase [5]): 12.5 nM
